Measured values published in publication doi:10.1101/2024.07.16.603716.

Biological target: VisA (SGO_2004) region containing its 7 G5 domains, residues 138-698, with a C-terminal His-tag (Streptococcus gordonii DL1)
Assay: denaturing western blot

VisA (SGO_2004) region containing its 7 G5 domains, residues 138-698, with a C-terminal His-tag (domain or fragment)
stoichiometry N: 2
